# Results as given in article PMC7367873, “Dissecting the sequence determinants for dephosphorylation by the catalytic subunits of phosphatases PP1 and PP2A” (Nature Communications, 2020).
# Assays:
# GFP-14-3-3β = GFP-14-3-3β co-IP with LC-MS/MS, untreated GFP-14-3-3β versus GFP control (14-3-3 interactome); format: binding, human; settings: untreated vs GFP; label-free quantification
# Method: (§1) HeLa Kyoto cells expressing transiently transfected pEGFP(C1)-14-3-3β or pEGFP(C1) control plasmid, were incubated with 20 nM Calyculin A (# 9902 S, Cell Signaling Technology) for 12 min. Cells were washed twice on ice with cold PBS and after addition of 500 µL lysis buffer (100 mM NaCl, 10 mM Tris, 0.1% IGEPAL, 1 mM EDTA, 1 mM EGTA, 20 nM Calyculin A, 1x cOmplete Mini protease inhibitor cocktail (Sigma), 1 mM DTT, 1 mM MnCl2) cells were scraped from plates, lysed by 10 pushes through an injection needle (21 G, BD) and the insoluble fraction was pelleted by centrifugation (10 min, 10^4 rcf, 4 °C). Supernatants were then subjected to incubation with 1 µM recombinant phosphatase or buffer for 1 h at 30 °C. Next, we subjected samples to immunoprecipitation using α-GFP nanobodies covalently coupled to agarose beads (2 h, 4 °C, obtained from the EMBL PEPcore Core Facility). Beads were then washed three times with lysis buffer and samples were eluted in 1x LDS sample buffer (Thermo Fisher Scientific) by heating to 70 °C for 10 min.
# (§2) The samples were then reduced with 25 mM dithiothreitol (10 min at 70 °C) and alkylated with 55 mM chloroacetamide (room temperature, 30 min, in the dark). Proteins were run on a precast 4–12% NuPAGE gel (ThermoFisher Scientific) for about 1 cm to concentrate the sample prior to in-gel tryptic digestion, which was performed according to the standard procedures. The peptides obtained were dried to completeness and resuspended in 12 µL of buffer A (0.1% FA), and 5 µL of sample were injected per MS measurement. The experiment was carried out in three independent replicates.
# (§3) The samples were analyzed by LC-MS/MS on a Dionex Ultimate 3000 nano-HPLC coupled online to a Fusion Lumos Tribrid mass spectrometer (Thermo Fisher Scientific). Peptides were delivered to a trap column (75 µm × 2 cm, packed in-house with 5 µm C18 resin; Reprosil PUR AQ, Dr. Maisch) and washed using 0.1% FA at a flow rate of 5 µL/min for 10 min. Subsequently, peptides were transferred to an analytical column (75 µm × 45 cm, packed in-house with 3 µm C18 resin; Reprosil Gold) applying a flow rate of 300 nL/min and separated using a 60 min linear gradient from 4% to 32% LC solvent B (0.1% FA, 5% DMSO in ACN) in LC solvent A (0.1% FA in 5% DMSO). The eluate from the analytical column was sprayed via a stainless steel emitter (Thermo Fisher Scientific) at a source voltage of 2.1 kV into the mass spectrometer. The transfer capillary was heated to 275 °C. The Fusion Lumos was operated in positive ionization mode and data-dependent acquisition (DDA), automatically switching between MS1 and MS2 spectrum acquisition. Full scan MS1 spectra were recorded in the Orbitrap from 360 to 1300 m/z at a resolution of 60k (automatic gain control (AGC) target value of 4e5 charges, maximum injection time (maxIT) of 50 ms). Up to 20 peptide precursors were isolated (isolation window, 1.7 m/z; maximum injection time, 25 ms; and AGC value, 1e5), fragmented by high-energy collision-induced dissociation (HCD) using 30% normalized collision energy (NCE), and analyzed at a resolution of 15k in the Orbitrap. Precursor ions that were singly charged, unassigned, or with charge states >6+ were excluded. The dynamic exclusion duration of fragmented precursor ions was 20 s.
# (§4) Peptide and protein identification and LFQ were performed using MaxQuant software (version 1.6.1.0)[64] by searching the data against all canonical protein sequences as annotated in the Swissprot reference database (human proteins only, 20193 entries, downloaded 22 March 2016, internally annotated with PFAM domains) using the embedded search engine Andromeda[65]. The MaxQuant search was performed using two variable modifications; oxidation of methionine and N-terminal protein acetylation. Carbamidomethylation on cysteines was specified as a fixed modification. Trypsin (Trypsin/P) was specified as the proteolytic enzyme with up to two allowed missed cleavage sites.
# [1] = test system: GFP-14-3-3β and its binding proteins; assay: GFP-14-3-3β co-IP with LC-MS/MS label-free quantification, untreated versus PP1c-treated; design: species or system human; settings: PP1 vs untreated; label-free quantification
# Method: as §1, §2, §3, §4
Molecule,"Difference (log2), untreated vs GFP (GFP-14-3-3β) [log2]","Difference (log2), PP1 vs untreated [1] [log2]"
"DARS (protein, UniProt P14868 1-501, looked up) Aspartate--tRNA ligase, …: MPSASASRKSQEKPREIMDAAEDYAKERYGISSMIQSQEKPDRVLVRVRDLTIQKADEVVWVRARVHTSRAKGKQCFLVLRQQQFNVQALVAVGDHASKQMVKFAANINKESIVDVEGVVRKVNQKIGSCTQQDVELHVQKIYVISLAEPRLPLQLDDAVRPEAEGEEEGRATVNQDTRLDNRVIDLRTSTSQAVFRLQSGICHLFRETLINKGFVEIQTPKIISAASEGGANVFTVSYFKNNAYLAQSPQLYKQMCICADFEKVFSIGPVFRAEDSNTHRHLTEFVGLDIEMAFNYHYHEVMEEIADTMVQIFKGLQERFQTEIQTVNKQFPCEPFKFLEPTLRLEYCEALAMLREAGVEMGDEDDLSTPNEKLLGHLVKEKYDTDFYILDKYPLAVRPFYTMPDPRNPKQSNSYDMFMRGEEILSGAQRIHDPQLLTERALHHGIDLEKIKAYIDSFRFGAPPHAGGGIGLERVTMLFLGLHNVRQTSMFPRDPKRLTP",-1.63,1.065
"LGALS3BP (protein, UniProt Q08380 19-585, looked up) Galectin-3-binding protein: VNDGDMRLADGGATNQGRVEIFYRGQWGTVCDNLWDLTDASVVCRALGFENATQALGRAAFGQGSGPIMLDEVQCTGTEASLADCKSLGWLKSNCRHERDAGVVCTNETRSTHTLDLSRELSEALGQIFDSQRGCDLSISVNVQGEDALGFCGHTVILTANLEAQALWKEPGSNVTMSVDAECVPMVRDLLRYFYSRRIDITLSSVKCFHKLASAYGARQLQGYCASLFAILLPQDPSFQMPLDLYAYAVATGDALLEKLCLQFLAWNFEALTQAEAWPSVPTDLLQLLLPRSDLAVPSELALLKAVDTWSWGERASHEEVEGLVEKIRFPMMLPEELFELQFNLSLYWSHEALFQKKTLQALEFHTVPFQLLARYKGLNLTEDTYKPRIYTSPTWSAFVTDSSWSARKSQLVYQSRRGPLVKYSSDYFQAPSDYRYYPYQSFQTPQHPSFLFQDKRVSWSLVYLPTIQSCWNYGFSCSSDELPVLGLTKSGGSDRTIAYENKALMLCEGLFVADVTDFEGWKAAIPSALDTNSSKSTSSFPCPAGHFNGFRTVIRPFYLTNSSGVD",-0.5352,1.074
"CGN (protein, UniProt Q9P2M7 1-1203, looked up) Cingulin: MEQAPNMAEPRGPVDHGVQIRFITEPVSGAEMGTLRRGGRRPAKDARASTYGVAVRVQGIAGQPFVVLNSGEKGGDSFGVQIKGANDQGASGALSSDLELPENPYSQVKGFPAPSQSSTSDEEPGAYWNGKLLRSHSQASLAGPGPVDPSNRSNSMLELAPKVASPGSTIDTAPLSSVDSLINKFDSQLGGQARGRTGRRTRMLPPEQRKRSKSLDSRLPRDTFEERERQSTNHWTSSTKYDNHVGTSKQPAQSQNLSPLSGFSRSRQTQDWVLQSFEEPRRSAQDPTMLQFKSTPDLLRDQQEAAPPGSVDHMKATIYGILREGSSESETSVRRKVSLVLEKMQPLVMVSSGSTKAVAGQGELTRKVEELQRKLDEEVKKRQKLEPSQVGLERQLEEKTEECSRLQELLERRKGEAQQSNKELQNMKRLLDQGEDLRHGLETQVMELQNKLKHVQGPEPAKEVLLKDLLETRELLEEVLEGKQRVEEQLRLRERELTALKGALKEEVASRDQEVEHVRQQYQRDTEQLRRSMQDATQDHAVLEAERQKMSALVRGLQRELEETSEETGHWQSMFQKNKEDLRATKQELLQLRMEKEEMEEELGEKIEVLQRELEQARASAGDTRQVEVLKKELLRTQEELKELQAERQSQEVAGRHRDRELEKQLAVLRVEADRGRELEEQNLQLQKTLQQLRQDCEEASKAKMVAEAEATVLGQRRAAVETTLRETQEENDEFRRRILGLEQQLKETRGLVDGGEAVEARLRDKLQRLEAEKQQLEEALNASQEEEGSLAAAKRALEARLEEAQRGLARLGQEQQTLNRALEEEGKQREVLRRGKAELEEQKRLLDRTVDRLNKELEKIGEDSKQALQQLQAQLEDYKEKARREVADAQRQAKDWASEAEKTSGGLSRLQDEIQRLRQALQASQAERDTARLDKELLAQRLQGLEQEAENKKRSQDDRARQLKGLEEKVSRLETELDEEKNTVELLTDRVNRGRDQVDQLRTELMQERSARQDLECDKISLERQNKDLKTRLASSEGFQKPSASLSQLESQNQLLQERLQAEEREKTVLQSTNRKLERKVKELSIQIEDERQHVNDQKDQLSLRVKALKRQVDEAEEEIERLDGLRKKAQREVEEQHEVNEQLQARIKSLEKDSWRKASRSAAESALKNEGLSSDEEFDSVYDPSSIASLLTESNLQTSSC",1.896,1.065
"TMEM43 (protein, UniProt Q9BTV4 2-400, looked up) Transmembrane protein 43: AANYSSTSTRREHVKVKTSSQPGFLERLSETSGGMFVGLMAFLLSFYLIFTNEGRALKTATSLAEGLSLVVSPDSIHSVAPENEGRLVHIIGALRTSKLLSDPNYGVHLPAVKLRRHVEMYQWVETEESREYTEDGQVKKETRYSYNTEWRSEIINSKNFDREIGHKNPSAMAVESFMATAPFVQIGRFFLSSGLIDKVDNFKSLSLSKLEDPHVDIIRRGDFFYHSENPKYPEVGDLRVSFSYAGLSGDDPDLGPAHVVTVIARQRGDQLVPFSTKSGDTLLLLHHGDFSAEEVFHRELRSNSMKTWGLRAAGWMAMFMGLNLMTRILYTLVDWFPVFRDLVNIGLKAFAFCVATSLTLLTVAAGWLFYRPLWALLIAGLALVPILVARTRVPAKKLE",-0.2983,1.071
"ABCD3 (protein, UniProt P28288 1-659, looked up) ATP-binding cassette …: MAAFSKYLTARNSSLAGAAFLLLCLLHKRRRALGLHGKKSGKPPLQNNEKEGKKERAVVDKVFFSRLIQILKIMVPRTFCKETGYLVLIAVMLVSRTYCDVWMIQNGTLIESGIIGRSRKDFKRYLLNFIAAMPLISLVNNFLKYGLNELKLCFRVRLTKYLYEEYLQAFTYYKMGNLDNRIANPDQLLTQDVEKFCNSVVDLYSNLSKPFLDIVLYIFKLTSAIGAQGPASMMAYLVVSGLFLTRLRRPIGKMTITEQKYEGEYRYVNSRLITNSEEIAFYNGNKREKQTVHSVFRKLVEHLHNFILFRFSMGFIDSIIAKYLATVVGYLVVSRPFLDLSHPRHLKSTHSELLEDYYQSGRMLLRMSQALGRIVLAGREMTRLAGFTARITELMQVLKDLNHGKYERTMVSQQEKGIEGVQVIPLIPGAGEIIIADNIIKFDHVPLATPNGDVLIRDLNFEVRSGANVLICGPNGCGKSSLFRVLGELWPLFGGRLTKPERGKLFYVPQRPYMTLGTLRDQVIYPDGREDQKRKGISDLVLKEYLDNVQLGHILEREGGWDSVQDWMDVLSGGEKQRMAMARLFYHKPQFAILDECTSAVSVDVEGYIYSHCRKVGITLFTVSHRKSLWKHHEYYLHMDGRGNYEFKQITEDTVEFGS",-0.7267,1.116
"BANF1 (protein, UniProt O75531 1-89, looked up) Barrier-to-autointegration …: MTTSQKHRDFVAEPMGEKPVGSLAGIGEVLGKKLEERGFDKAYVVLGQFLVLKKDEDLFREWLKDTCGANAKQSRDCFGCLREWCDAFL",-2.499,1.068
"RTCB (protein, UniProt Q9Y3I0 1-505, looked up) RNA-splicing ligase RtcB …: MSRSYNDELQFLEKINKNCWRIKKGFVPNMQVEGVFYVNDALEKLMFEELRNACRGGGVGGFLPAMKQIGNVAALPGIVHRSIGLPDVHSGYGFAIGNMAAFDMNDPEAVVSPGGVGFDINCGVRLLRTNLDESDVQPVKEQLAQAMFDHIPVGVGSKGVIPMNAKDLEEALEMGVDWSLREGYAWAEDKEHCEEYGRMLQADPNKVSARAKKRGLPQLGTLGAGNHYAEIQVVDEIFNEYAAKKMGIDHKGQVCVMIHSGSRGLGHQVATDALVAMEKAMKRDKIIVNDRQLACARIASPEGQDYLKGMAAAGNYAWVNRSSMTFLTRQAFAKVFNTTPDDLDLHVIYDVSHNIAKVEQHVVDGKERTLLVHRKGSTRAFPPHHPLIAVDYQLTGQPVLIGGTMGTCSYVLTGTEQGMTETFGTTCHGAGRALSRAKSRRNLDFQDVLDKLADMGIAIRVASPKLVMEEAPESYKNVTDVVNTCHDAGISKKAIKLRPIAVIKG",-0.6754,1.104
